Measurements as given in article PMC10681739, “High-throughput data and modeling reveal insights into the mechanisms of cooperative DNA-binding by transcription factor proteins”.

T1: ETS1 x2 (Homo sapiens, UniProt P14921)
T1 sequence: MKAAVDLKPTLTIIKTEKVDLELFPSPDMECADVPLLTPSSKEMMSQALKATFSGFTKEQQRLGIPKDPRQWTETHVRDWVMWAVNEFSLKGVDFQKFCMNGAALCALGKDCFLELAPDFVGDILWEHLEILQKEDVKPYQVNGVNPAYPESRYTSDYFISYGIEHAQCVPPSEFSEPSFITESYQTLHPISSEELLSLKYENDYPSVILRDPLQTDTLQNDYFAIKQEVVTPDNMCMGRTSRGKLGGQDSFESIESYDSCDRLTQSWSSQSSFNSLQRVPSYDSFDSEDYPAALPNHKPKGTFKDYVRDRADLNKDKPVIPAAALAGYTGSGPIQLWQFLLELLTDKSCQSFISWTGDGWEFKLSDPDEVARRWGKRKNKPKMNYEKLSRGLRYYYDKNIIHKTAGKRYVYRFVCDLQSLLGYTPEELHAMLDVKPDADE


Target: T1, ETS1 x2
Test: gcPBM; 10 nM ETS1
Settings: tags: N-terminal GST (pDEST15), kept (PMC6008103); chain copies: 2; label: surface-attached array probe

Binder	binding signal
Table S4 A row 1074 (dsDNA) DNA 1: CACGCACATCCCCAGTGAGTAACACTTCCTGAGGGC DNA 2: GCCCTCAGGAAGTGTTACTCACTGGGGATGTGCGTG	653 PBM fluorescence, median of replicate spots
Table S4 A row 493 (dsDNA) DNA 1: TGGTAAACGGAAGAGACCTCTCCTGTTCCGGGAGTA DNA 2: TACTCCCGGAACAGGAGAGGTCTCTTCCGTTTACCA	743 PBM fluorescence, median of replicate spots
Table S4 A row 1968 (dsDNA) DNA 1: GTGATTGGCAGGATCCTGGTATCCGCTAACAGGTAC DNA 2: GTACCTGTTAGCGGATACCAGGATCCTGCCAATCAC	599 PBM fluorescence, median of replicate spots
Table S4 A row 2621 (dsDNA) DNA 1: TGGAGCCGGGGGAAGTGGGAGCATCCGCAGCCCCGC DNA 2: GCGGGGCTGCGGATGCTCCCACTTCCCCCGGCTCCA	698 PBM fluorescence, median of replicate spots
Table S4 A row 1783 (dsDNA) DNA 1: ACCCCGGATGGCACCGCGAGTCCCCGTTTCCGACAA DNA 2: TTGTCGGAAACGGGGACTCGCGGTGCCATCCGGGGT	645 PBM fluorescence, median of replicate spots

Target: ETS1:RUNX1 (Homo sapiens, UniProt P14921;Q01196 full;full)
Test: gcPBM; 1 nM ETS1 + 25 nM RUNX1, anti-ETS1 signal, normalised
Settings: tags: N-terminal GST (pDEST15), kept (PMC6008103); copies: 1;1; label: surface-attached array probe

Binder	binding signal
Table S2 A row 1075 (dsDNA) DNA 1: GTTGCAGGAAACGATGGGTTTTGTGGTATGAACTGC DNA 2: GCAGTTCATACCACAAAACCCATCGTTTCCTGCAAC	2140 PBM fluorescence, median of replicate spots
Table S2 A row 315 (dsDNA) DNA 1: GAAAAATGAAGTTTCCGCAGTAACCACAACACAGCC DNA 2: GGCTGTGTTGTGGTTACTGCGGAAACTTCATTTTTC	1900 PBM fluorescence, median of replicate spots
Table S2 A row 1529 (dsDNA) DNA 1: GGTGCCTGGGGAGGATGTGGGCTGACTGGGAGGGGT DNA 2: ACCCCTCCCAGTCAGCCCACATCCTCCCCAGGCACC	1520 PBM fluorescence, median of replicate spots
Table S2 A row 388 (dsDNA) DNA 1: GCAGTTTCAAGAGGATGTGGTCTCTTTCACTGCCTG DNA 2: CAGGCAGTGAAAGAGACCACATCCTCTTGAAACTGC	1800 PBM fluorescence, median of replicate spots
Table S2 A row 465 (dsDNA) DNA 1: TGAGGGGCTCGCCGGGAAATGTGGTTTAGCGGCCCT DNA 2: AGGGCCGCTAAACCACATTTCCCGGCGAGCCCCTCA	1230 PBM fluorescence, median of replicate spots
Table S2 A row 1444 (dsDNA) DNA 1: TGCTTAGCGGGAAGTGCTTACACCACAAAACAAGAC DNA 2: GTCTTGTTTTGTGGTGTAAGCACTTCCCGCTAAGCA	1280 PBM fluorescence, median of replicate spots
Table S2 A row 670 (dsDNA) DNA 1: TGAGCACAGTATTTCCTGTGGTTTCTATTGCATTTC DNA 2: GAAATGCAATAGAAACCACAGGAAATACTGTGCTCA	1550 PBM fluorescence, median of replicate spots
Table S2 A row 1175 (dsDNA) DNA 1: TTGCTCCCGGAAGCCCCGCCCGACCGCGGCTCCTGA DNA 2: TCAGGAGCCGCGGTCGGGCGGGGCTTCCGGGAGCAA	1960 PBM fluorescence, median of replicate spots
Table S2 A row 963 (dsDNA) DNA 1: GGGTCGCGGCCTTCCGGCGAACGCGGTTACCGTGGA DNA 2: TCCACGGTAACCGCGTTCGCCGGAAGGCCGCGACCC	1180 PBM fluorescence, median of replicate spots
Table S2 A row 1754 (dsDNA) DNA 1: AACAGTTGCATAGGAAGTGGTCAGCTCTCCTCCACC DNA 2: GGTGGAGGAGAGCTGACCACTTCCTATGCAACTGTT	2050 PBM fluorescence, median of replicate spots
Table S2 A row 1000 (dsDNA) DNA 1: CCCATTTCCTGCTCTCCAGAGTTAACCACTGAAGTC DNA 2: GACTTCAGTGGTTAACTCTGGAGAGCAGGAAATGGG	1350 PBM fluorescence, median of replicate spots
Table S2 A row 1056 (dsDNA) DNA 1: GGGTCTCCAGGAAGCCACTCACCACAAACTTTGACA DNA 2: TGTCAAAGTTTGTGGTGAGTGGCTTCCTGGAGACCC	1560 PBM fluorescence, median of replicate spots
Table S2 A row 83 (dsDNA) DNA 1: GACAGACCTTAGGAAGTCGCGGTTTCATCAGGGCTT DNA 2: AAGCCCTGATGAAACCGCGACTTCCTAAGGTCTGTC	1710 PBM fluorescence, median of replicate spots
Table S2 A row 378 (dsDNA) DNA 1: GAAAAAAATGAGCTTCCTTTAACCACAACTGTATTA DNA 2: TAATACAGTTGTGGTTAAAGGAAGCTCATTTTTTTC	1320 PBM fluorescence, median of replicate spots
Table S2 A row 37 (dsDNA) DNA 1: AGAATCGCATCAGGATGTGGTGAGGGAGCACATTTG DNA 2: CAAATGTGCTCCCTCACCACATCCTGATGCGATTCT	2110 PBM fluorescence, median of replicate spots
Table S2 A row 342 (dsDNA) DNA 1: ACACCCCAGGAAGTGGCAGAGACCACAACAAGTCAG DNA 2: CTGACTTGTTGTGGTCTCTGCCACTTCCTGGGGTGT	1810 PBM fluorescence, median of replicate spots
Table S2 A row 843 (dsDNA) DNA 1: CCTTGCTACAGGATGTTTTGACCACGAGCCCAGGAG DNA 2: CTCCTGGGCTCGTGGTCAAAACATCCTGTAGCAAGG	2240 PBM fluorescence, median of replicate spots
Table S2 A row 769 (dsDNA) DNA 1: CAAGCCAACATCCTGACAGTTTAGAAACCACAGGAG DNA 2: CTCCTGTGGTTTCTAAACTGTCAGGATGTTGGCTTG	1670 PBM fluorescence, median of replicate spots

Binder	binding signal
Table S2 A row 988 (dsDNA) DNA 1: TCATGCTGCTTCCTGCCCAACCCGCAGTTCCGATAA DNA 2: TTATCGGAACTGCGGGTTGGGCAGGAAGCAGCATGA	1730 PBM fluorescence, median of replicate spots
Table S2 A row 1399 (dsDNA) DNA 1: TCGCACCGGAACCCCTTGGCGGATTATGTGGGTTCC DNA 2: GGAACCCACATAATCCGCCAAGGGGTTCCGGTGCGA	1490 PBM fluorescence, median of replicate spots
Table S2 A row 224 (dsDNA) DNA 1: GACCAATGTAAACAAGGATGTGGGTTCTCCGGGCAC DNA 2: GTGCCCGGAGAACCCACATCCTTGTTTACATTGGTC	2020 PBM fluorescence, median of replicate spots
Table S2 A row 1288 (dsDNA) DNA 1: TCTCTATGGTTTCCGTTGGGTGTGTGGTTTTTTTGT DNA 2: ACAAAAAAACCACACACCCAACGGAAACCATAGAGA	1410 PBM fluorescence, median of replicate spots
Table S2 A row 712 (dsDNA) DNA 1: GACTTTTACGGAAATAGCAGTCCAAAACCGCGTCTA DNA 2: TAGACGCGGTTTTGGACTGCTATTTCCGTAAAAGTC	1340 PBM fluorescence, median of replicate spots
Table S2 A row 1411 (dsDNA) DNA 1: GAGGGGGAGGTTTCCGGGGCCTGTGGTTACTACACT DNA 2: AGTGTAGTAACCACAGGCCCCGGAAACCTCCCCCTC	1620 PBM fluorescence, median of replicate spots
Table S2 A row 672 (dsDNA) DNA 1: ATGTGCCCAAAGGATGTCACCGCAAAGATCATAGGA DNA 2: TCCTATGATCTTTGCGGTGACATCCTTTGGGCACAT	1400 PBM fluorescence, median of replicate spots
Table S2 A row 548 (dsDNA) DNA 1: CTCTCACTTCCCGTGTGAGAAAAACCACAGAAAAGC DNA 2: GCTTTTCTGTGGTTTTTCTCACACGGGAAGTGAGAG	2080 PBM fluorescence, median of replicate spots
Table S2 A row 140 (dsDNA) DNA 1: AGTTACAGTAAAGGATGTGGTGAAACAGATGTTTAT DNA 2: ATAAACATCTGTTTCACCACATCCTTTACTGTAACT	1480 PBM fluorescence, median of replicate spots
Table S2 A row 979 (dsDNA) DNA 1: GCGCGGCCCGGAAGGGGGTAACCGCTGAGTCTTTGA DNA 2: TCAAAGACTCAGCGGTTACCCCCTTCCGGGCCGCGC	1910 PBM fluorescence, median of replicate spots
Table S2 A row 1482 (dsDNA) DNA 1: CCATCCAGGAAGCTTATGGTGCAACCGCAGTGTGCC DNA 2: GGCACACTGCGGTTGCACCATAAGCTTCCTGGATGG	2210 PBM fluorescence, median of replicate spots
Table S2 A row 1129 (dsDNA) DNA 1: CACTTCCTCCTCGGGGGCCTCAGAAAACCACAGGGC DNA 2: GCCCTGTGGTTTTCTGAGGCCCCCGAGGAGGAAGTG	1580 PBM fluorescence, median of replicate spots
Table S2 A row 308 (dsDNA) DNA 1: GCCGCTGCCTCTTCCTGTGTGGTTTTTCAGGGCTTA DNA 2: TAAGCCCTGAAAAACCACACAGGAAGAGGCAGCGGC	1610 PBM fluorescence, median of replicate spots
Table S2 A row 337 (dsDNA) DNA 1: ATAGTCTCTTCCTGTGTTGCAAACCACAGGTCCACC DNA 2: GGTGGACCTGTGGTTTGCAACACAGGAAGAGACTAT	1690 PBM fluorescence, median of replicate spots
Table S2 A row 1237 (dsDNA) DNA 1: AGCCTACATCCTGCACTGCTTAACCACAGCCCGCCT DNA 2: AGGCGGGCTGTGGTTAAGCAGTGCAGGATGTAGGCT	1360 PBM fluorescence, median of replicate spots
Table S2 A row 127 (dsDNA) DNA 1: CAAGCCAGGAAGAGGGCCCTCACCAGAAACCGCACT DNA 2: AGTGCGGTTTCTGGTGAGGGCCCTCTTCCTGGCTTG	1640 PBM fluorescence, median of replicate spots
Table S2 A row 1201 (dsDNA) DNA 1: GTTGAGTTCCGGGGGAGGTTGAGTTCCTGCGGTCAA DNA 2: TTGACCGCAGGAACTCAACCTCCCCCGGAACTCAAC	1630 PBM fluorescence, median of replicate spots
Table S2 A row 692 (dsDNA) DNA 1: TGCGAGGTTGCCAGGAAACCGCGAAGCCGAGGTCCC DNA 2: GGGACCTCGGCTTCGCGGTTTCCTGGCAACCTCGCA	2180 PBM fluorescence, median of replicate spots
